Source: publication PMC4198471 (Biochimica et biophysica acta, 2014)

Molecular target: T1, Trx-RhopH3-C (P. falciparum RhopH3 amino acids 620-897 with Trx and His tags) (Plasmodium falciparum, UniProt Q8I395 620-897)
T1 sequence: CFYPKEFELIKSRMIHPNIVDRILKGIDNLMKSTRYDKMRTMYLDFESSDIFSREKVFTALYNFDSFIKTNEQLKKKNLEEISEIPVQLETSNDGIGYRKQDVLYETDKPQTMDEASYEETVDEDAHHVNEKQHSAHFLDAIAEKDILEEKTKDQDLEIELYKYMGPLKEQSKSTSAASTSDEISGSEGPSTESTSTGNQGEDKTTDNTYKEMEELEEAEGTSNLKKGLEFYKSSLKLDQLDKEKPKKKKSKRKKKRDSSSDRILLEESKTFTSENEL
Experiment: ELISA

GMPWLSATTVRSVTHANALTVMGKASTPGAAAQIQEVKEQRI (domain or fragment, UniProt P02730 720-761, looked up) [GST-5ABC (5ABC region of human erythrocyte band 3, amino acids 720-761, as GST fusion protein)]
Kd: 183 ± 0.111 nM
